Where “and” joins values, the source holds several entries; their conditions need not be identical. Equal entries are not always repeated.
Molecular target: T1, human GnRH receptor (hGnRH-R) (human, UniProt P30968 1-328)
T1 sequence (looked up): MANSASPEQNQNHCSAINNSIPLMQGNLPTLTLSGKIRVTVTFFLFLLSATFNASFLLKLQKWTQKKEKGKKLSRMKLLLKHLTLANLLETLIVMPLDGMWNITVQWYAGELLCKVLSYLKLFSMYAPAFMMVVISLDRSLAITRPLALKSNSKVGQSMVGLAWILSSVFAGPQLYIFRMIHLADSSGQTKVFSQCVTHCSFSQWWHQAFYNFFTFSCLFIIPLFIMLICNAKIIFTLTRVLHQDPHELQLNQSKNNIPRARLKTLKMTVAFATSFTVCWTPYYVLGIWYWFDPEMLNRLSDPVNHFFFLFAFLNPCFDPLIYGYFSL
Test: cell-based or functional assay

Molecule: AN-152 (peptide)
- proliferation status after 96 h (vital cells, untreated control = 100%), hGnRH-R positive cell line 5C6, 100 nM (% of untreated control): 42.1 and 43.9

B1: disorazole Z bis hemi glutaryl [D-Lys^6]LHRH (17) (peptide)
peptide: XHWSYKLRPG
modifications: Glp (pyroglutamate) at 1; D-Lys at 6, joined through a glutaryl linker to disorazole Z; C-terminal amide
- proliferation status after 96 h (vital cells, untreated control = 100%), hGnRH-R positive cell line 5C6, 0.1 nM: 95.5 % of untreated control
- proliferation status after 96 h (vital cells, untreated control = 100%), hGnRH-R positive cell line 5C6, 1 nM: 85.9 % of untreated control
- proliferation status after 96 h (vital cells, untreated control = 100%), hGnRH-R positive cell line 5C6, 10 nM: 58.5 % of untreated control
- proliferation status after 96 h (vital cells, untreated control = 100%), hGnRH-R positive cell line 5C6, 100 nM: 41.7 % of untreated control

B2: disorazole Z mono hemi succinyl [D-Lys^6]LHRH (16) (peptide)
peptide: XHWSYKLRPG
modifications: Glp (pyroglutamate) at 1; D-Lys at 6, joined through a succinyl linker to disorazole Z; C-terminal amide
- proliferation status after 96 h (vital cells, untreated control = 100%), hGnRH-R positive cell line 5C6, 0.1 nM: 83.8 % of untreated control
- proliferation status after 96 h (vital cells, untreated control = 100%), hGnRH-R positive cell line 5C6, 1 nM: 80.9 % of untreated control
- proliferation status after 96 h (vital cells, untreated control = 100%), hGnRH-R positive cell line 5C6, 10 nM: 54.1 % of untreated control
- proliferation status after 96 h (vital cells, untreated control = 100%), hGnRH-R positive cell line 5C6, 100 nM: 21.9 % of untreated control

B3: disorazole E1 mono hemi succinyl [D-Lys^6]LHRH, both regio-isomers (13) & (14) (peptide)
peptide: XHWSYKLRPG
modifications: Glp (pyroglutamate) at 1; D-Lys at 6, joined through a succinyl linker to disorazole E1; C-terminal amide
- proliferation status after 96 h (vital cells, untreated control = 100%), hGnRH-R positive cell line 5C6, 0.1 nM: 85.9 % of untreated control
- proliferation status after 96 h (vital cells, untreated control = 100%), hGnRH-R positive cell line 5C6, 1 nM: 80.8 % of untreated control
- proliferation status after 96 h (vital cells, untreated control = 100%), hGnRH-R positive cell line 5C6, 10 nM: 45.9 % of untreated control
- proliferation status after 96 h (vital cells, untreated control = 100%), hGnRH-R positive cell line 5C6, 100 nM: 14.6 % of untreated control

Source: patent publication US7741277 (AETERNA ZENTARIS, dated 2010)
